The values below come from article PMC6046605.

What is called Kd is the constant that tells how readily two partners part at equilibrium. A lower Kd goes with a tighter complex. For orientation: stoichiometry N means a count of units in the complex or per binding partner.

Where “and” joins values, the source holds several entries; their conditions need not be identical. Equal values may be shown once.

Assay [1] concerns the target murine norovirus (MNV) RNA-dependent RNA polymerase (RdRp), native (murine norovirus (MNV)). Description: SPR; data not shown; immobilised RdRp; Biacore2000, 1:1 Langmuir kinetics. On the technique in general: SPR reads the build-up and loss of mass on a sensor chip optically.
The target is the same in assay [2]. Briefly: cross-linking; 0.001% glutaraldehyde, room temperature 6 min; 50 mM HEPES pH 7.4, 5 mM MgCl2, 5 mM DTT, 1 μM oligo(A)15, 2 μM RdRp, 6 μM VPg; SDS-PAGE and western blot with anti-RdRp or anti-VPg antisera.
Assay [3] has the same target. Briefly: crystal structure; RdRp incubated with VPg at a molar ratio of 1:2 with UTP or GTP, oligo(A) or oligo(C), 2 mM MnCl2, 2 mM MgCl2; P21, six monomers in the asymmetric unit; 3.1 Å.
The target is the same in assay [4]. Briefly: negative-stain electron microscopy; RdRp alone, 1-6 μM protein, 1 h at room temperature, uranyl formate stain; 2D class averages compared with projections of the hexamer model.
The target of assay [5] is murine norovirus (MNV) RdRp D331A mutant (murine norovirus (MNV)). Briefly: not stated; D331A and L354D RdRp by themselves, in the absence of VPg; told only in the discussion.
Assay [6] deals with murine norovirus (MNV) RdRp L354D mutant (murine norovirus (MNV)). The description is as above.
Assay [7] addresses murine norovirus (MNV) RdRp D331A mutant (murine norovirus (MNV)). Briefly: SPR; Biacore2000; RdRp or mutant RdRp immobilised on a CM5 chip (amine coupling, sodium acetate pH 5.0); analyte in 20 mM Tris-HCl pH 8.0, 100 mM NaCl, 5 mM MgCl2; 1:1 Langmuir kinetics.
In assay [8] the target is murine norovirus (MNV) RNA-dependent RNA polymerase (RdRp), native (murine norovirus (MNV)). Described as above.
Assay [9] addresses murine norovirus (MNV) RdRp L354D mutant (murine norovirus (MNV)). Described as above.
Assay [10] deals with murine norovirus (MNV) RNA-dependent RNA polymerase (RdRp), native (murine norovirus (MNV)). The assay is described as above. This is another data set of the same source.

“murine norovirus (MNV) RNA-dependent RNA polymerase (RdRp), native (enzyme)” showed a Kd in [1] of 2.2 nM. The stoichiometry N is 2 and 3 and 6 in assay [2]; 6 in [3]; 6 in assay [4].
“murine norovirus (MNV) RdRp D331A mutant (enzyme)” showed a stoichiometry N in assay [5] of 6.
In the case of “murine norovirus (MNV) RdRp L354D mutant (enzyme)”, in assay [6], the stoichiometry N stood at 6.
Regarding “murine norovirus (MNV) VPg(1-73) (domain or fragment)”, the Kd in assay [1] was found to be 17 nM. This lies in the double-digit nanomolar range.
For “murine norovirus (MNV) VPg(1-124), full length (natural protein)”, the dissociation constant Kd in assay [7] amounted to 23 nM; in assay [8], 8.7 nM; in assay [9], 210 nM; in assay [10], 8.9 nM.
